The supplement of paper PMC6379048

Legend:
Experiment in all cases: EC50 of free RNA motif oligo competing protein binding to immobilised probe
CPSF1 = molecular target: T1, CPSF1 (UniProt Q10570)
T1 sequence: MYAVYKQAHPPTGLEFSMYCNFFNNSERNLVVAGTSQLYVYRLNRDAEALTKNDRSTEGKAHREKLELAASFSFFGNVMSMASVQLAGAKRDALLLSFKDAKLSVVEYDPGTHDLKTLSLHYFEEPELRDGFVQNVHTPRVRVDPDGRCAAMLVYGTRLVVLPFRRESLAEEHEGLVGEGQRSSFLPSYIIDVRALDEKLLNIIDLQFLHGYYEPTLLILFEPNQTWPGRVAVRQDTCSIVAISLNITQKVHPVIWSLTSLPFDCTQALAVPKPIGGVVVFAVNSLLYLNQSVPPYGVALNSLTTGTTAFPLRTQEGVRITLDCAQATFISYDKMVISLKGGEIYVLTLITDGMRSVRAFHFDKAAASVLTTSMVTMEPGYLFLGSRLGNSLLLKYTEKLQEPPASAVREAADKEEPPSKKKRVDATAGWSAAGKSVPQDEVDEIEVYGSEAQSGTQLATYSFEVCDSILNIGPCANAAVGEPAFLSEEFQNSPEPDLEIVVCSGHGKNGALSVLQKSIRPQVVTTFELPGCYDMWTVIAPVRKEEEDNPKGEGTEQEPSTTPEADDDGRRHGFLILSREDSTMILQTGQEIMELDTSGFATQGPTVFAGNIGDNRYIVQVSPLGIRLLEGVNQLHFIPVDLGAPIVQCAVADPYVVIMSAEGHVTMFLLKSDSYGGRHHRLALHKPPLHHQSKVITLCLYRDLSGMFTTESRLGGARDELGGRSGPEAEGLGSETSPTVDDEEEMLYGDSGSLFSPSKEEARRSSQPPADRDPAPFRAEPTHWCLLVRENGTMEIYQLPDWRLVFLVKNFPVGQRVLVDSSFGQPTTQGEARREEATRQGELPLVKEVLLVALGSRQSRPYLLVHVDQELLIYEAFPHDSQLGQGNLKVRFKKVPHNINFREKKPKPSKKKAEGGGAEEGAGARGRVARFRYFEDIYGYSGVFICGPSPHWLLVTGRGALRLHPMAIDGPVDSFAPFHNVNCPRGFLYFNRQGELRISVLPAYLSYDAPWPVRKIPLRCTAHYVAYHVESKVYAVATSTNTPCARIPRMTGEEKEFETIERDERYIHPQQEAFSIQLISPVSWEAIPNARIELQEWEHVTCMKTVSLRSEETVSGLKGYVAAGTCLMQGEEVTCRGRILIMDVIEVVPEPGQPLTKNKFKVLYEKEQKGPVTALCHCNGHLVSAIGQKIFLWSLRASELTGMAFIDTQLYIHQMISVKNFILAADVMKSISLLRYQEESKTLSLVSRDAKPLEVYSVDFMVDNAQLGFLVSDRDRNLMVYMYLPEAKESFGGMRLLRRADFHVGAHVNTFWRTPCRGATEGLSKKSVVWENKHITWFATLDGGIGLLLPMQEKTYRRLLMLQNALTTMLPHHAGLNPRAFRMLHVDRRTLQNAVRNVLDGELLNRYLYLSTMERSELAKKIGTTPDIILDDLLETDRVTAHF
In short: (§1)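 Free RNA oligos (0 nM to 30 μM) competed for 1 h at 4°C in HEK293-FT lysate (2.5 mg protein/well) before a 30 min, 4°C pulldown with the same oligos on NHS-Sepharose beads. Bound proteins were quantified by label-free LC-MS/MS and normalised to the control. Kd was found by multiplying EC50, from a four-parameter log-logistic fit, by a protein-dependent depletion factor.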

RBMS3 = molecular target: T2, RBMS3 (UniProt Q6XE24)
T2 sequence: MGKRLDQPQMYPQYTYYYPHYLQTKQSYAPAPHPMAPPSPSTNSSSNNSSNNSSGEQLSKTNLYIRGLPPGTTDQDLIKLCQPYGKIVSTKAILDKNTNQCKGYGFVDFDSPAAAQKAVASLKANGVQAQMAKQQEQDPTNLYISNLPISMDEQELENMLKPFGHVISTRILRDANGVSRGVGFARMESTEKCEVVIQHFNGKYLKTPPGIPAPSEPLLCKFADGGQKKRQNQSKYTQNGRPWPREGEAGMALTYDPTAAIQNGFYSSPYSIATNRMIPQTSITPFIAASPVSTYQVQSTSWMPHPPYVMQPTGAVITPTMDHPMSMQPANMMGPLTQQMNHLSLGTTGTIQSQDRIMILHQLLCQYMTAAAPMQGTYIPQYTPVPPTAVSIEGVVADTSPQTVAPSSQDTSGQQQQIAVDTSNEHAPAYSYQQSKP
In short: as §1

SSB = molecular target: T3, SSB (UniProt P05455)
T3 sequence: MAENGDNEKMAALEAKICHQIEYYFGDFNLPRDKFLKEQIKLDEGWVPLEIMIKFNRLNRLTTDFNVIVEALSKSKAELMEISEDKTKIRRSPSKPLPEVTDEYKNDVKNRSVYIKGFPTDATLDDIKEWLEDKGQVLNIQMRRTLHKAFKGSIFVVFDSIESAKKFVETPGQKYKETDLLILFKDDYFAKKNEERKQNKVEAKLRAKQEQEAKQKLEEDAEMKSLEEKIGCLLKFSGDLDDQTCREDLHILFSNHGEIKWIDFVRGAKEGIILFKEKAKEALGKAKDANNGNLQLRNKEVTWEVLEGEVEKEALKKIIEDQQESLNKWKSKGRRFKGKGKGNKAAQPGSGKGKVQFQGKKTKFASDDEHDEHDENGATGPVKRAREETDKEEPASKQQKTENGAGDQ
In short: as §1

SRSF9 = SRSF9 (UniProt Q13242)
SRSF9, sequence (Q13242 whole entry): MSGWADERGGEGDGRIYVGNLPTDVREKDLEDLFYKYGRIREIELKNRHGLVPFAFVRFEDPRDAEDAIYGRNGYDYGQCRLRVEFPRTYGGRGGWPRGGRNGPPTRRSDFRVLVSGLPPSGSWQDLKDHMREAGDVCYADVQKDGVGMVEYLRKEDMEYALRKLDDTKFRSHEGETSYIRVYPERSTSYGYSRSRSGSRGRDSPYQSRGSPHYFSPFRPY
In short: as §1

Q: How did the EC50 (CPSF1) turn out when AAUAAA was run?
A: 64.4 nM

Q: And the EC50 (RBMS3)?
A: 1180 nM

Q: Which results are given for CUGUCCU?
A: EC50 (SSB): 2640 nM; EC50 (SRSF9): 4530 nM

Q: With UAUUUAU as the sequence, how does the EC50 (CPSF1) read?
A: 1710 nM

Q: And the EC50 (SSB)?
A: 300 nM

Q: And the EC50 (RBMS3)?
A: 279 nM

Q: What about the EC50 (SRSF9) of the same sequence?
A: 8030 nM
